From publication PMC11372007, “Characterization of a GDS(L)-like hydrolase from Pleurotus sapidus with an unusual SGNH motif” (AMB Express, 2024) come the findings set out here.

Substrate in data set [1]: CCCCCCCC(=O)Oc1ccc([N+](=O)[O-])cc1
The experiment in a line: purified protein. In kind it is biochemical, Pleurotus sapidus. The settings on record: apparent constant, esterase assay: potassium phosphate pH 7.0, 0.5% v/v Triton X-100, 30 °C.

Substrate in data set [2]: CCCC(=O)Oc1ccc([N+](=O)[O-])cc1
The data set can be described thus: purified protein. Type of data set: biochemical, Pleurotus sapidus. The following applies: apparent constant, esterase assay: potassium phosphate pH 7.0, 0.5% v/v Triton X-100, 30 °C.

As a reminder, the Km is the substrate concentration at which the rate is half of its maximum. For orientation: Vmax means the rate approached at saturating substrate. Usually kcat stands for the number of substrate molecules converted per active site and unit of time at saturation. The kcat/Km is the turnover number divided by the Michaelis constant.

B1: PSA_Lip (Pleurotus sapidus) (protein)
chain: AVLPRDAPNGVHLAVDPKCGVAGGRFGDVNIGLKPLTSYEHIVAFGDSWTDGGAHNGEPLPPPVLTPPNPRAGGRASNGPVWVEKLASAAGATLLDFAEIGAVTDKNIWPSSLLPTTASSANDFVGQAHNYINQRNGFDPETTLYTIFLGVGDFDLSQQTGTDNLYTVAGAIVYTILELTSYPTYAKNIIVVDNYGRGIYETPSGDAFKEGIYAGLNTLHTRYGTSVGFVDLKTLWDGVLGSSPGYEAFGYTSKAACLPSSTSTSGACANPESTFYWLPGIPSAATHGLIADYVEKVLTTC
notes: no tag told; semi-native gel band ~118 kDa
On to B1, for which, in “purified protein [1]”, the Km was determined as 330 µM, the maximal velocity (Vmax) was determined as 122 µM/min, the kcat was found to be 2.19 s⁻¹ and the kcat/Km is 6560 M⁻¹ s⁻¹. In addition, in the data set “purified protein [2]”, the Michaelis constant (Km) amounted to 1220 µM, the Vmax is 109 µM/min, the catalytic constant (kcat) amounted to 1.95 s⁻¹ and the kcat/Km is 1610 M⁻¹ s⁻¹.
